According to patent publication US10000771B2, “Nuclear targeting sequences” (Yeda Research and Development Co. Ltd., priority 2007, dated 2018):

Tested on: COS7 cells
Experiment: Subcellular fractionation of GFP-ERK2 constructs
Format: cell-based
Details: 48 hr after transfection, serum-starved
Method: FIG. 6 is an autoradiograph illustrating the subcellular fractionation of WT-GFP-ERK2 (WT), APA-GFP-ERK2 (APA), or EPE-GFP-ERK2 (EPE). COS7 cells were grown in 10 cm plates and transfected with the above ERK2 constructs. Twenty-four hr after transfection the cells were serum-starved for 16 hr and subjected to cellular fractionation as described under materials and Methods. Western blot analysis of aliquots of the fractions were stained with anti GFP Ab to detect the ERK2 and its mutant, and with anti tubulin and anti c-Jun Abs as markers for the cytoplasmic and nuclear fractions respectively.
Cellular Fractionation: Transfected COS7 cells were starved (0.1% FBS) for 16 h, after which they were washed with ice-cold PBS, suspended in ice-cold buffer H, and centrifuged (12,000×g, 5 min). Then, the nuclear and cytosolic fractions were isolated as described [H. Rubinfeld, T. Hanoch, R. Seger, J. Biol. Chem. 274, 30349 (1999)]. Briefly, the pellets were suspended in 0.1% NP-40 followed by centrifugation (12,000×g, 5 min). The supernatant, containing the cytosolic fraction, was boiled in sample buffer. The pellet was suspended in extraction buffer (420 mM Nacl, 50 mM β-glycerophosphate, 0.5 mM Na3VO4, 1.5 mM MgCl2, 0.2 mM EDTA, 1 mM DTT, 25% glycerol), incubate on ice for 10 min, sonicated (50 W, 2×7 sec), and centrifuged (12,000×g, 5 min). […]

B1: APA-ERK2: GFP-ERK2 with the two Ser residues of the SPS sequence replaced by Ala (protein)
chain: MAAAAAAGPEMVRGQVFDVGPRYTNLSYIGEGAYGMVCSAYDNLNKVRVAIKKISPFEHQTYCQRTLREIKILLRFRHENIIGINDIIRAPTIEQMKDVYIVQDLMETDLYKLLKTQHLSNDHICYFLYQILRGLKYIHSANVLHRDLKPSNLLLNTTCDLKICDFGLARVADPDHDHTGFLTEYVATRWYRAPEIMLNSKGYTKSIDIWSVGCILAEMLSNRPIFPGKHYLDQLNHILGILGAPAQEDLNCIINLKARNYLLSLPHKNKVPWNRLFPNADSKALDLLDKMLTFNPHKRIEVEQALAHPYLEQYYDPSDEPIAEAPFKFDMELDDLPKEKLKELIFEETARFQPGYRS
modifications: left off: large carriers
  localized in the nucleus: ~5%
